In publication PMC12105186 (Cell Communication and Signaling : CCS, 2025):
Where “and” joins values, the source holds several entries; their conditions need not be identical. Equal values may be shown once. One block for each molecule: values may come before it.

Tests used:
[1] = target: N-terminally 6×His-tagged AB region of hRXRγ (human); assay: MST
AUC = target: the molecule itself; assay: AUC
SEC-MALS = target: the molecule itself; assay: SEC-MALS

- Kd [1]: 11.1 µM
Molecule: deletion mutant of human RXRγ lacking the AB region (ΔABhRXRγ) (from UniProt P48443 128-463) (domain or fragment)

B1: full-length human retinoid X receptor γ (hRXRγ) (receptor, UniProt P48443 1-463, looked up)
chain: MYGNYSHFMKFPAGYGGSPGHTGSTSMSPSAALSTGKPMDSHPSYTDTPVSAPRTLSAVGTPLNALGSPYRVITSAMGPPSGALAAPPGINLVAPPSSQLNVVNSVSSSEDIKPLPGLPGIGNMNYPSTSPGSLVKHICAICGDRSSGKHYGVYSCEGCKGFFKRTIRKDLIYTCRDNKDCLIDKRQRNRCQYCRYQKCLVMGMKREAVQEERQRSRERAESEAECATSGHEDMPVERILEAELAVEPKTESYGDMNMENSTNDPVTNICHAADKQLFTLVEWAKRIPHFSDLTLEDQVILLRAGWNELLIASFSHRSVSVQDGILLATGLHVHRSSAHSAGVGSIFDRVLTELVSKMKDMQMDKSELGCLRAIVLFNPDAKGLSNPSEVETLREKVYATLEAYTKQKYPEQPGRFAKLLLRLPALRSIGLKCLEHLFFFKLIGDTPIDTFLMEMLETPLQIT
- stoichiometry N (AUC): 5

B2: deletion mutant of human RXRγ lacking the AB region (ΔABhRXRγ) (domain or fragment, UniProt P48443 128-463, looked up)
chain: STSPGSLVKHICAICGDRSSGKHYGVYSCEGCKGFFKRTIRKDLIYTCRDNKDCLIDKRQRNRCQYCRYQKCLVMGMKREAVQEERQRSRERAESEAECATSGHEDMPVERILEAELAVEPKTESYGDMNMENSTNDPVTNICHAADKQLFTLVEWAKRIPHFSDLTLEDQVILLRAGWNELLIASFSHRSVSVQDGILLATGLHVHRSSAHSAGVGSIFDRVLTELVSKMKDMQMDKSELGCLRAIVLFNPDAKGLSNPSEVETLREKVYATLEAYTKQKYPEQPGRFAKLLLRLPALRSIGLKCLEHLFFFKLIGDTPIDTFLMEMLETPLQIT
- stoichiometry N (AUC): 2 and 6
- stoichiometry N (SEC-MALS): 4
